Experimental data as given in PMC4593522, “Development of a Radiolabeled Peptide-Based Probe Targeting MT1-MMP for Breast Cancer Detection” (PLoS ONE, 2015).
Square brackets hold non-standard residues; d marks the D form. Peptide text beside a SMILES is read from it. * marks the point of attachment. HYNIC = NNc1ccc(C(=O)*)cn1; AEEA = NCCOCCOCC(=O)O

What was measured:
[1] = In vitro solution stability in saline (radio-HPLC); type: physicochemical; settings: 0.9% physiological saline, 37°C, 100 μL tracer in 400 μL total, mean ± SD
Procedure: (§1) HYNIC-AF7p solution (20 μL, 60 μg/mL in H2O), of tricine solution (100 μL, 100 mg/mL in 25 mM succinate buffer, pH 5.0), SnCl2 solution (10 μL, 3 mg/mL in 0.1 M HCl) and Na^99mTcO4 (100 μL, 370 MBq) in saline were added into a 5 mL Eppendorf tube. The reaction mixture was kept at room temperature for 10 min. To the reaction mixture above was added 100 μL of the TPPTS solution (50 mg/mL in 25 mM succinate buffer, pH 5.0). The vial containing the reaction mixture was sealed, cramped, and heated at 90°C for 30 min. After cooling to room temperature, sample was analyzed by radio-HPLC. The radio-HPLC method used a HP Hewlett Packard Series 1100 HPLC system equipped with a Radioflow Detector LB509 and a reversed-phase Zorbax SB-C18 column (4.6 mm × 250 mm, 5 μm). The flow rate was 1 mL/min. The gradient mobile phase started with 90% solvent A (0.1% TFA in water) and 10% solvent B (0.1% TFA in acetonitrile) to 30% solvent A and 70% solvent B at 24 min to 0% solvent A and 100% solvent B at 27 min, followed with 90% solvent A and 10% solvent B at 30 min. […]
(§2) 100 μL of [^99mTc]-(HYNIC-AF7P)(tricine)(TPPTS) was added to either 0.9% physiological saline or 1 mg/mL cysteine solution. […] After 1 h, 2 h, 3 h, 4 h, 5 h and 6 h incubation, the radiochemical purity for [^99mTc]-(HYNIC-AF7P)(tricine)(TPPTS) at each time point was detected by radio-HPLC as described above.

[2] = test system: A549 tumor (little MT1-MMP); test: SPECT imaging of A549 tumor-bearing mice; type: in vivo; settings: i.v., A549 tumor bearing model, mean ± SD
Procedure: All animal experiments were approved by Jilin University Health Science Center Animal Care and Use Committee. Human breast carcinoma cell line MDA-MB-231 with high MT1-MMP expression and human lung adenocarcinomaepithelial cell line A549 with low MT1-MMP expression were cultured in DMEM medium containing 10% (v/v) fetal bovine serum (Invitrogen) supplemented with penicillin (100 μg/mL) and streptomycin (100 μg/mL) at 37°C with 5% CO2. MDA-MB-231 and A549 tumor models were established by subcutaneous injection of 5×10^6 cells into the upper right front flank of female athymic nude mice (Department of Experimental Animal, Peking University Health Science Center). Tumor growth was monitored by caliper measurements three times a week after the tumors are palpable. The mice were used for SPET/CT imaging when the tumor volume reached about 200 mm3 (about 14 days after tumor inoculations). The tumor volume was determined as the formula: V = a × (b^2)/2, where a and b are the length and width of each tumor in mm respectively. During the injection and image acquisition process, the mice were anesthetized with 2.5% isoflurane in oxygen delivered at a flow rate of 1.5 L/min.
The imaging study was performed using the female BALB/c nude mice bearing the MDA-MB-231 tumors and A549 tumors. Each tumor-bearing mouse was administered intravenously with [^99mTc]-(HYNIC-AF7P)(tricine)(TPPTS) (22.2 MBq/mice) in 0.1 mL saline. For blocking test, 200 μg free AF7P was intravenously injected into MDA-MB-231 tumor bearing mice 30 min before [^99mTc]-(HYNIC-AF7P)(tricine)(TPPTS) was injected. Animals were placed prone on a two-head γ-camera (SIEMENS, E. CAM) equipped with a parallel-hole, low-energy, and high-resolution collimator. Posterior images were acquired at 0.5, 2 and 4 hours post injection (p.i.). The acquisition count limits were set at 700k. After completion of imaging, animals were sacrificed by cervical dislocation.

[3] = In vitro solution stability in the presence of excess cysteine (radio-HPLC); type: physicochemical; settings: 1 mg/mL cysteine, pH = 7.4, 37°C, mean ± SD
Procedure: as §1, §2

With `CC(C)C[C@H](NC(=O)[C@H](Cc1ccccc1)NC(=O)[C@@H](NC(=O)[C@H](CCCCN)NC(=O)[C@@H](NC(=O)[C@H](CC(N)=O)NC(=O)[C@H](Cc1c[nH]cn1)NC(=O)[C@H](CC(C)C)NC(=O)[C@H](Cc1c[nH]cn1)NC(=O)[C@H](CCCCN)NC(=O)[C@H](Cc1c[nH]c2ccccc12)NC(=O)[C@H](Cc1c[nH]cn1)NC(=O)c1ccc(NN)nc1)[C@@H](C)O)[C@@H](C)O)C(=O)NCCOCCOCC(=O)O` [[^99mTc]-(HYNIC-AF7P)(tricine)(TPPTS), metal not drawn] ({HYNIC}-HWKHLHNTKTFL[AEEA]-OH) the “original form (radiochemical purity) in saline” value ([1]; after 6 hours incubation) was 93.5 ± 2.27%, the “original form (radiochemical purity) in saline” value ([1]; at the beginning) was 96.8 ± 1.12% and the “tumor uptake (SPECT ROI), A549 tumor” value ([2]; 0.5 h p.i.) was 1.35±0.11 %ID/g. The “tumor uptake (SPECT ROI), A549 tumor” value ([2]; 4 h p.i.) was 1.01± 0.00 %ID/g, the “tumor uptake (SPECT ROI), A549 tumor” value ([2]; time point not printed (between 0.5 h and 4 h)) was 1.03±0.05 %ID/g and the “original form (radiochemical purity) in solution containing excess cysteine” value ([3]; after 6 hours incubation) was 94.2 ±1.72%. For the same compound, the “original form (radiochemical purity) in solution containing excess cysteine” value ([3]; at the beginning) was 96.8 ± 1.52%.
